Data: a protein production outcome set (Wang et al. 2014)

Assay: label from the status in PepcDB records

Row | Sequence | protein production
1 | MSLTHVIWDMGETLNTVPNTRYDHHPLDTYPEVVLRKNAKETLEKVKQLGFKQAILSNTATSDTEVIKRVLTNFGIIDYFDFIYASNSELQPGKMEKPDKTIFDFTLNALQIDKTEAVMVGNTFESDIIGANRAGIHAIWLQNPEVCLQDERLPLVAPPFVIPVWDLADVPEALLLLKKISEGHHHHHH | not failed
2 | MIQKQHESKLEVGQTFPVTIKRLGINGEGVGYFKRQVVFIPGALPGEEVVAETTKIQRGFAEAKVKKVRKASPHRVKAPCPVYEECGGCQLQHLDYKEQLNQKRDIVVQAFEKYMKNSMEEKIRPTLGMENPWHYRNKSQLQVGRKDEKVITGLYKQNSHQLIDIAHCMIQHKATNEATKVVRRILEKLNVSIYNEKKQKGLVRTIVTRTAVQTGEVQVTLITTKEELPNKEQFIAEVQKQMPAVKSIMQNVNWRKTSVIFGDKTFKLAGKEVIQETLGDLSFELSARAFFQLNPEQTVVLYNEAKKAAALTGNEKIVDAYCGVGTIGLWLANDAAEVRGMDVIPEAIADARKNAKRHGFTNTKYEAGKAEQWLPKWVKEGWRPDVIVVDPPRTGCDDKLLETILKVKPKQVVYVSCNPSSLARDVQALMKSYEVEYVQPVDMFPHTAHVENVVKLTLK | failed
3 | IEAENHKVTDKIKNAQPFLVDVVPAKSVIPELNDDAQKTLLHAGPPIQWSEMTGPMKGACIGAALFERWADNEEDALKIFEAGEVRFIPCHHVKAVGPMGGITSGNMPVFVVENRLEGNEAYCILNEGIGKVLRFGAYSQEVVDRLDWIKDVLGPTIAKALKLSEEGLNLNVLIARSITMGDEFHQRNIAASLNFLKELSPLIIKTDIPEDQKYEVIKFLADTDQFFLNVMMATGKAIVDGARKDTNGTIVTTMTRNGVNFGVRIAETGDQWHTAPVNTPKGLYFTGFSEEDGNPDVGDSAITETVGVGAMAMVAAPGVTRFVGAGGFEDALATSNEMAKICEGNNPTFSIPTWDFQGTCLGIDIRKVVELGITPIINTGIAHKNAGVGQIGAGTVRAPLGCFEKALEAYAEKLGITVE | failed
4 | MKRTLLAISIFAITCNASASSSPDAVSSMSDRYSTLANLEMNGGFPTETSQKILQNESYFQRASMLYQWALPIVNMKAMQEGHAELMNGTAYNKIAIYQDRLKPNSLITTPNSDVIYAMGWLDMKETGPLIIEHPAGLQSLMDDMYHHPLRGPLDKNQPGGQYLGDIGNAGPDKGKAAKFLILPPNKKREDYAQLADKYFIYESNTSEVFLFLRSFFKDMNNLEPAVNRVKEIKVYPLNGSAESMEFFNVSDVPSKSIWDNDYRFYETLNRAVQNMELATFDPYMNGVMAAIGISKGVEFTPTEKQKEMLTKAAQTGWKISKEIALNFDEKSSKTTGDTWFWKEAPSWVAHALTDKGNQYHALSDPYYHNIKTGYTNVDAITHMYTNHYSMSSGMINAKIGAGAKYAGAYKDKDLNPLIGSCNYSLHIPADVPASLFWSVTAYDAATAAGVNVENHQWPSLGDRDNPIKNSDDSVTLFFGPTAPENAQLAKNNWLQFDNDSWFSLIRFYGPQQSLFDGSWVPGEFEKINCVK | failed
5 | MIGKEVLNYTIVSLIGKGGMGSVYLAEHKYIKQQKVAIKVINSDMVNDFTRQRLKEEAEHLASLNHQNIVRFHDYHIDELGSIYLIMEYADGISLDKYIQTVSGLIVEDKICPLFEPILDAVEYAHEHNIIHRDIKPANIIITKEGIPKILDFGIATIINRESVEKDDMVMGTPSYMSPEQVRGDHLDSRSDIYSLGVMLHQMLTGNAPYDTTTLTEYDINKKVVEEPLPRMRTYYKYVSDKVQKIVDKATAKEPGERYQTCDDFKKALHRVIYPPKIPKWVWTSVAAIVLLMIGGGVYFWDYNRTKVYYYKDYVEQWGVPQGIGELSSREMSHVNRLYRFEYKKHKLQRMSHVNSKENIIEDGESERNERPLDMLLYYTDKGNISRAKVLDRSGKVLYVKSYNDKLNTVIFQYDDEYGTEKTLGAQTIGYVRALEDNGVEKGKISRWLLEYDENGYVSTIRYAGFQNVLVGDAHNIYGRKYVRDEKGRVLSEHYLSFDGTPKATKWGLGMKKFYYDENDNWVKAEYLTVDGKPAYDDADGIGVYVMEYDKYGNVVYALHQDADGKLMLPKKNGVAGIKYIYDQHGFPIEASYLDIDRKACFIPNDGFSKVVRKFDDNGYIINQTFYDVDGNQCLSNDGNSSAKYINDNRGNVQEMWFYGLDGKLNEINEGYAGVKLNYDSIGNIIEYVTYGIDQKPCLKSDGTAGYKAEYNDMNLITKLVNIGVDLSPCKDNNGIVIAARDYDKRGNQIKVSFYDAGGKTLVLSNENIAGWNSVYDDNGNETERSFFDDKNNLTVCAGSCAKWISKFDEQGNETNLRYYNLSGKLMMVNGSAGANYKRDKRGNILEKIEIGTDEQLASGKLIARYKYDKFDNQIEFSVYDRNNKPALNSLDYHKYVCIYNSRNQRIEIEYYGKDGELTSYNNDKYAIQKDEYDERGYIVRTSYYGKDKQLVVSNEGWASSTREYDVLGNVLKQSFFGIDGKPTDPKVMVPEGLCRYDRWGNRIYLAAGDGKGHLIINPKTGWSIQKSEYNSRGKLLSEAYFDENEKPLISRMDGYHKAVISYTSSGNEKEKCYYDIMNKPMLCPDGYFKEVYEYNDNQQAISLSYLGVNGKSIDCKDGYSKIELTYNKDGEMESRKYTNASGRILLTQKWNGKEWVNSSPEPISRNWQQDVRKFNAELPIDFGENTKHLVASSFLVTGSNSCELSFKTPKSKYEMTEAEVNEYFASIKLVVTKIKSESLPSSVVITGILFDSKGRQLRSIRK | failed
6 | KRITRPGNTDDPSGGNKVLLLSIQNPLYPITVDVLYTVCNPVGKVQRIVIFKRNGIQAMVEFESVLCAQKAKAALNGADIYAGCCTLKIEYARPTRLNVIRNDNDSWDYTKPYLGRR | not failed
7 | MMELHDLAEDLPSKWTEIMAVAEKAFRAFAELDAVKRELAESENAQ | not failed
8 | MAPPTPHLAVRGSDGTLLLHGPPNCQESSAFQRDDRQGRYMTFSNDGTLFAWCNGSQVTVLKVPSGDLVKSFDLPKTTALEFSPLNKVLATWQQYTKTQDNPQGEANLQLWDLQTGACMKAFYQKKMTGWCPSWADDESISVRNVNNELHFFENNNFETIANKLHLQKVSEFALSPGSQPSKVAVYVPGSKGAPSFVRLYQYPNFGGPTCALANKSFFKADKVNMLWNKKATAVLVTASTEVDKTGASYYGEQTLHYVATNGESAVVQLPKNGPIYDVSWSPNSTEFCVVYGFMPAKATVFNNKCESVFDFGTGPRNAAFYSPQGHILVLAGFGNLRGQMEVWDVKKYKQVSKPQAEDTTHFSWCPDGEHIVTATCSPRLRASNGYKIWHYTGTVLYKHETPSGKELWEVLWQPFPAGVFPERAVKYQALPSELGSTEAKPAQAYRPPALRNKPQTASSKLHEEEPPQNMKPGAAGEKQPSKAALKNQKRREAKKAAKQENKPDEAPPPAADPAPVSHVTSSCGDPETDKKIKNLKKKLKAIDELKEQQAAGKVMQKNQLEKMQKEAQLLKELEDLELGL | not failed
9 | MSAKKLFIQTLGCAMNVRDSEHMIAELTQKENYALTEDIKEADLILINTCSVREKPVHKLFSEVGGFEKVKKEGAKIGVCGCTASHLGNEIFKRAPYVDFVLGARNISKITQAIKTPKFMGVDIDYDESEFAFADFRNSIYKSYINISIGCDKHCTYCIVPHTRGDEISIPFNIIYKEAQKAIEKGAKEIFLLGQNVNNYGKRFRNEHKKMDFSDLLEELSTIEGLERIRFTSPHPLHMDDKFLEVFANNPKVCKSMHMPLQSGSSEILKAMKRGYTKEWYLNRALKLRELCPNVSISTDIIVAFPGESEKDFEETVDVLEKVRFEQIFSFKYSKRPLTKAATMPNQIDEEIASRRLSTLQNRHSEILDKIVKKQENKTFKVLFEELRAGNSIAGRTDNNFLVQVEGSEELLGQFKEVKITNAKRMVLYGEIVLEHHHHHH | failed
10 | MSNVIASLEKVLLPFAVKIGKQPHVNAIKNGFIRLMPLTLAGAMFVLINNVFLSFGEGAFFYSMGIRLDASTIETLNGLKGIGGNVYNGTLGIMSLMAPFFIGMALAEERKVDALAAGLLSVAAFMTVTPYSVGEAYAVGANWLGGANIISGIIIGLVVAEMFTFIVRRNWVIKLPDSVPASVSRSFSALIPGFIILSIMGIIAWALSNYGSNFHQIIMDTISTPLASLGSVVGWAYVIFVPLLWFFGIHGSLALTALDSGIMTPWALENISIYQQYGSVDAALEAGKTFHIWAKPMLDSYIFLGGSGATLGLIIAIFLASRRADYRQVAKLALPSGIFQINEPILFGLPIIMNPVMFIPFILVQPILAAITLVAYYLGIIPPITNIAPWTMPTGLGAFFNTNGSVAALLVALFNLAVATLIYLPFVVVANKAQNAIEQEESEEDIANALKF | not failed
11 | MTRNRRRIAFAAILAMATTAHAQQGQVLTTQDEIGGVYEGTFRGGLQHGTGTYRLPNGYEYSGEWVDGEIRGRGVARFPNGSVYEGSFAQGKPEGMGKITFSDGGTYEGEWSNGVINGQGVAVYANGVRYEGGFRDARHHGKGVMQSPGGYVYEGDWADGQKEGLGKITYPDGAVYEGGIVAGQRHGEGTLTLPDGLVYVGFWADGQINGKGTLTQANGDVYEGDLIAGRREGKGKVTYANGDVYQGDFTDDRREGQGIFTGTDGYSYAGSWVAGQIEGQGRVTYPDGSVYEGNFRADLADGQGKITYPDGSSYEGEWVAGVIEGTGTAIYANGIVYKGTFKNAKNHGQGVMTYADGYRYEGEWQDGVRHGQGKATYPDGSVYTGQYVNGQREGDGEIVMADGFRYKGQWQSGKISGIGVATYANGDIYEGHFRNGKRQGEGTMKYASGQEEKGNWDNGALTKGAAASDG | failed
12 | MRADRSMLGPSLHRDQIMAMNRVQFQAGLSLPAFLKRYGNAQQCEQALEISRWPQGFVCPHCAATAHSRFQRHGTTYWQCTACYRQTSLRSGTVMDNSKLPLRTWLLGMYLLGQSKTNLSALELMRHLGVSYPTAWPMKHKLMQAMTQREANRKLGGIVQLDDAYLGGERNGGKAGRGSENKRLFVIAVETTEDGRPLRAVMDPVPGFTKAALSEWIGQRLHPGADVYSDGLGAFRALEAEHAHTVIEGSGRSRCEAENARWVNVVLSNLKRSLDGAYHAFKYAQRYLAETMWRFNRRFDLTRLVPSLLAAAAASKPWSERALRDVTMFTAESAC | failed
13 | MDLHESESRTHVLSTDGDDGYIDMEVNLSSSSSSSTSSSSFFSFPVTSSPPQSREFEFQMCSSAVASGESTTSPADELFYKGQLLPLHLPPRLKMVQKLLLASSSSTAATETPISPRAAADVLSPRRFSSCEIGQDENCFFEISTELKRFIESNENHLGNSWSKKIKHSSITQKLKASRAYIKALFSKQACSDSSEINPRFKIEPSKVSRKKNPFVNSENPLLIHRRSFSGVIQRHSQAKCSTSSSSSSSASSLSSSFSFGSNGSLDLQTLMRSSNASDNSIEGAIEHCKQSFTTRKSNVTESELCSSRTSVSTCGDLDKD | failed
14 | MQNSFLPLNTRRFRQRAQVETPDTVYWDRLAKPELLKEHNTIDYLDFSPSDPDNFVVTCSVRVQIYNLVTMLVVKNLSRFQKTAYGATFRQDGRLLAAGDEEGHVKLFDTTSRNILRLFKGHTAPVHRTFFTADKLQLASFGDDKSVRLWDVANEKVVQTYEDTHTDYVRAGAMHPQAGHMFVSGGYDGKIKLYDTRAETAVQRTLDHGAPVESMLFLPNGSIFVSAGGSQVRVWDLISGCRLLTMMSQHHKTVTCLRLGSDGRRLLSGGLDRHVKIYDVSTYKTVHTLTYPNAVVSMAVADGDQAVVAGMVDGLVSIRRMMVDSKPSHLKKIRADRARKYFVSTKRTNNTQEVDHTIKDHVKGPGLKSYDVHLRQFNHKKALDDVMNAQKMQYQPELIVAVITDLLHRGSLGKALTGRHEAALVRFIDFICNHLGEVRFMRPLMMAASTVLDVFEQRLVAYSQKLMKALQRLSLAMQEEVRLTAELMRMKGAVDMLIGISMDNSEVAHKPTYVETKTPKMHPSVAAQNYVVLVE | failed
